Consider one protein from PMC3357956 (Nature structural & molecular biology, 2011).

This series concerns the molecule itself. Kind of series: thioflavin T fluorescence.

Take QGGFGNSRGGGAGLGNNQGSNMGGGMNFGAFSINPAMMAAAQAALQ (peptide, UniProt Q13148 286-331, looked up) [wild-type TDP46mer (synthetic TDP-43 peptide Gln286-Gln331)]: the binding result is “binds”.
